The target of assay [1] is T1, αT-catenin M1-M3 (aa 260–626) (Mus musculus, UniProt Q65CL1 260-626).
T1 construct: αT-catenin, Mus musculus, M1-M3, aa 260-626; in pGEX-TEV; also called αT-catenin M-region; αT-catenin M1-M3 (260–626); source: E. coli BL21-Gold, purified (glutathione-agarose, TEV cleavage, Mono Q or Mono S, S200)
T1 sequence (looked up): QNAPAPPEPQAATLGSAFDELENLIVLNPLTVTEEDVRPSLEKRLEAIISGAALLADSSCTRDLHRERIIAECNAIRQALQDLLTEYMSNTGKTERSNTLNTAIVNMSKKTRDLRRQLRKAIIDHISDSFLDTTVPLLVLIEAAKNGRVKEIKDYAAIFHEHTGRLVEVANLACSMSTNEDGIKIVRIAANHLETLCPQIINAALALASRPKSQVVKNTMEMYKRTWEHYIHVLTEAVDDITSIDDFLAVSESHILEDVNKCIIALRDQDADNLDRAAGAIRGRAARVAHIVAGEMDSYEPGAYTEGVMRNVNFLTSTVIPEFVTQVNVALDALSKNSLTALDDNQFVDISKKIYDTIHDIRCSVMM
The assay can be described thus: ITC; vinculin D1 titrated into an equimolar mixture of αT-catenin N1-N2 and M1-M3; 25 °C; 20 mM Hepes pH 8.0, 150 mM NaCl, 1 mM TCEP. Particulars: both partners purified. For orientation: In ITC the heat of successive injections is recorded.

For assay [2], the target named is 2I27–αT-catenin M1-M3 (aa 259–667)-2I27 (UniProt Q65CL1). Nature of the assay: ITC; vinculin D1 injected into αT-catenin or αE-catenin fragment (or αT-catenin head–β-catenin complex) in the cell; 25 °C; 20 mM Hepes pH 8.0, 150 mM NaCl, 1 mM TCEP.
Assay [3] has as its target T2, αE-catenin M1-M2 (aa 273–510) (Mus musculus, UniProt P26231 273-510).
T2 construct: αE-catenin, Mus musculus, M1-M2, aa 273-510; in pGEX-TEV; also called αE-catenin M1-M2 (273–510); source: E. coli BL21-Gold, purified (glutathione-agarose, TEV cleavage, Mono Q or Mono S, S200)
T2 sequence (looked up): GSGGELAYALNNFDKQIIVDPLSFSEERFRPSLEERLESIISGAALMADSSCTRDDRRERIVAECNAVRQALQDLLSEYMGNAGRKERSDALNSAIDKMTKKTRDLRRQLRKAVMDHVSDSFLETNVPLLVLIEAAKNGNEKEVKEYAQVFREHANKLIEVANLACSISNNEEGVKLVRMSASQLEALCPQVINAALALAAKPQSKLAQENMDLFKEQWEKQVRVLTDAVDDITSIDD
Described as above. Particulars: both partners purified.

In assay [4] the target is T1, αT-catenin M1-M3 (aa 260–626). The description is as above. To be noted: both partners purified.
Assay [5] concerns the target T3, αE-catenin M1-M3 (aa 273–651) (Mus musculus, UniProt P26231 273-651).
T3 construct: αE-catenin, Mus musculus, M1-M3, aa 273-651; in pGEX-TEV; also called αE-catenin M1-M3 (273–651); source: E. coli BL21-Gold, purified (glutathione-agarose, TEV cleavage, Mono Q or Mono S, S200)
T3 sequence (looked up): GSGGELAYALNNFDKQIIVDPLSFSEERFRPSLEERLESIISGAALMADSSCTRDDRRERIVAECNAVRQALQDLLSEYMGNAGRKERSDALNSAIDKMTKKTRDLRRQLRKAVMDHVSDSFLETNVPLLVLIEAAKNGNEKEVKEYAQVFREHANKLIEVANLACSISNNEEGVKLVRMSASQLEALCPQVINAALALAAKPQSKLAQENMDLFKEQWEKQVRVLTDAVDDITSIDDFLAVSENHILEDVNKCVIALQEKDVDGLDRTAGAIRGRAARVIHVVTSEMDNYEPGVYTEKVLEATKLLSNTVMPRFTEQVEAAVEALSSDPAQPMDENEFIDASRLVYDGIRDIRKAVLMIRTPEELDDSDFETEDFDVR
Described as above. Particulars: both partners purified.

The target of assay [6] is T4, αT-catenin head region (aa 1–659) (Mus musculus, UniProt Q65CL1 1-659).
T4 construct: αT-catenin, Mus musculus, head region (N- and M-domains), aa 1-659; in pGEX-TEV; also called αT-catenin head (1–659); αT-catenin N1-M3 (aa 1–659); source: E. coli BL21-Gold, purified (glutathione-agarose, TEV cleavage, Mono Q or Mono S, S200)
T4 sequence (looked up): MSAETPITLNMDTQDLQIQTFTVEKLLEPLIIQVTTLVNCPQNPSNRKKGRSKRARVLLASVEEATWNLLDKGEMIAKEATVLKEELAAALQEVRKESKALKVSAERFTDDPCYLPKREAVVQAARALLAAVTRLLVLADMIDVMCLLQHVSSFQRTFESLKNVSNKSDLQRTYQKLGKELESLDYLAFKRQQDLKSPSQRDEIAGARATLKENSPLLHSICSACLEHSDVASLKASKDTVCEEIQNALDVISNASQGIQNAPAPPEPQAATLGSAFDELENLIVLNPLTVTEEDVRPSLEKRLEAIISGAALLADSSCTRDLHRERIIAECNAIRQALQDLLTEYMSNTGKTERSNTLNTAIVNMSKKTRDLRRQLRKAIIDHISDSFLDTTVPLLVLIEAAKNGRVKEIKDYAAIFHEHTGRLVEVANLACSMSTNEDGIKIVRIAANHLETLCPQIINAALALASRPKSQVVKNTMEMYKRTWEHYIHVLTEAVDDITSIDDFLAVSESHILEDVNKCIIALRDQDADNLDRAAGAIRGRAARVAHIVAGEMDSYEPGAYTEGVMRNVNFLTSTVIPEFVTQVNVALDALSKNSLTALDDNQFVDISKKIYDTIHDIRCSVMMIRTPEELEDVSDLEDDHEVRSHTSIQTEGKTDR
Described as above. To be noted: both partners purified.

Kd and dH data for one molecule are collected here from article PMC8091058, “Distinct intramolecular interactions regulate autoinhibition of vinculin binding in αT-catenin and αE-catenin” (The Journal of Biological Chemistry, 2021).

B1: vinculin D1 (aa 1–259) (domain or fragment, UniProt P12003 1-259, looked up)
chain: MPVFHTRTIESILEPVAQQISHLVIMHEEGEVDGKAIPDLTAPVSAVQAAVSNLVRVGKETVQTTEDQILKRDMPPAFIKVENACTKLVRAAQMLQADPYSVPARDYLIDGSRGILSGTSDLLLTFDEAEVRKIIRVCKGILEYLTVAEVVETMEDLVTYTKNLGPGMTKMAKMIDERQQELTHQEHRVMLVNSMNTVKELLPVLISAMKIFVTTKNTKSQGIEEALKNRNFTVEKMSAEINEIIRVLQLTSWDEDAWA
notes: vinculin D1 fragment, aa 1-259, the first 2 four-helix bundles; in pGEX-TEV; also called vinculin aa 1 to 259 (D1); vinculin N-terminus; source: E. coli BL21-Gold, purified (glutathione-agarose, TEV cleavage, Mono Q or Mono S, S200)
What is called Kd is the constant that tells how readily two partners part at equilibrium. For the molecule B1, the Kd was found to be 50.1 ± 17.5 nM in assay [1]; 245 nM in assay [2]; 60.5 ± 19.2 nM in assay [4]; 10400 ± 4590 nM in assay [5]; 4690 ± 2740 nM in assay [6]. The dH in assay [1] is -3.1 ± 0.1 kcal/mol; in assay [2], 4.8 kcal/mol; in assay [3], 8.7 ± 0.2 kcal/mol; in assay [4] it was -2.2 ± 1 kcal/mol; in assay [5], 12.8 ± 5.2 kcal/mol; in assay [6], 2.3 ± 1.3 kcal/mol.
